Experimental data from publication doi:10.1101/2020.08.24.265033, “Dipeptidyl peptidase 9 triggers BRCA2 degradation by the N-degron pathway to promote DNA-damage repair” (bioRxiv, 2020).

Target: T1, Human recombinant DPP9 (dipeptidyl peptidase 9), His-tagged (human, UniProt Q86TI2 1-863)
T1 construct: Dipeptidyl peptidase 9, human, recombinant; Held on a Ni chip by its His tag in SPR; used in solution in the pull-down; also called purified DPP9; His-tagged DPP9; source: Sf9 cells, purified essentially as described in Pilla et al. 2012
T1 sequence (Q86TI2 whole entry): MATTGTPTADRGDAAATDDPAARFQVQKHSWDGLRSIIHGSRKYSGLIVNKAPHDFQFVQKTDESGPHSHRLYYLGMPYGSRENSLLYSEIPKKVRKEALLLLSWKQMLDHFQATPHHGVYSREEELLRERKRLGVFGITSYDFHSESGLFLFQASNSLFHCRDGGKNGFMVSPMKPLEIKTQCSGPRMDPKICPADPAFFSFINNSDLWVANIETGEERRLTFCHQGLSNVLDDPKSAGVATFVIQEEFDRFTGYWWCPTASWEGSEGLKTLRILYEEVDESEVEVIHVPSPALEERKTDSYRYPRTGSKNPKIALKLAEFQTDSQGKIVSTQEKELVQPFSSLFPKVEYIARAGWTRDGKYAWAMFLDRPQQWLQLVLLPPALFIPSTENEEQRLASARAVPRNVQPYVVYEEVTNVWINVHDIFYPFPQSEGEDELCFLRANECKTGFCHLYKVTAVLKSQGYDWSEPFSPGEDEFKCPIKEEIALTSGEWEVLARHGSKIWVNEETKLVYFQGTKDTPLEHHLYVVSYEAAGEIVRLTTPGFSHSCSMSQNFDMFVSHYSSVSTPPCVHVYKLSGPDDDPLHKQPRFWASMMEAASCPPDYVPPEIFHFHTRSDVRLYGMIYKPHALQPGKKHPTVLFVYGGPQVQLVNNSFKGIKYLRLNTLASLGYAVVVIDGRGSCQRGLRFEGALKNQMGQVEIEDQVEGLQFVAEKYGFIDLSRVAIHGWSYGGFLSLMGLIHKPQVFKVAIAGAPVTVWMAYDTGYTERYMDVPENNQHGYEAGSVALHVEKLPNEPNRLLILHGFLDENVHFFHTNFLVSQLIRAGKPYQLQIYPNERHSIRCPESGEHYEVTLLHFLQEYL
Experiment: SPR; His-tagged DPP9 immobilised on a Ni-loaded NiHC1000m chip; serial dilution of BRCA2 peptides injected; 20 mM HEPES pH 7.4, 150 mM NaCl, 50 µM EDTA, 0.005 % TWEEN-20; 20°C; equilibrium binding analysis
Conditions: both partners purified

B1: BRCA2_(1-40) synthetic peptide (first forty amino acids of BRCA2) (peptide, UniProt P51587 1-40, looked up)
peptide: MPIGSKERPTFFEIFKTRCNKADLGPISLNWFEELSSEAP
notes: BRCA2, human, residues 1-40; also called BRCA2_(1-40) N-terminal peptide; BRAC2_(1-40) peptide; source: synthetic peptide
- Kd: 16.8 ± 0.7 µM

B2: BRCA2_(3-40) synthetic peptide (truncated, lacking Met1-Pro2) (peptide, UniProt P51587 3-40, looked up)
peptide: IGSKERPTFFEIFKTRCNKADLGPISLNWFEELSSEAP
notes: BRCA2, human, residues 3-40; also called truncated BRCA2_(3-40) peptide; source: synthetic peptide
- Kd: 75.3 ± 4.8 µM
